Consider five molecules from PMC3295763 (PLoS ONE, 2012).

To fix the notation:
B1: sdAb B12 (VHH)
VHH: DVQLQASGGGLAQPGGSLRLSCVASGSVSRLSRMGWYRQAPGKQRELVAYIWHDGDNSYMDSVKGRFTISRDNARDTAYLQMNSLKPEDTAVYYCNYYRVGSGDSWGQGIQVIVSS
notes: source: E. coli Rosetta, periplasmic (pECAN45), purified (IMAC, Superdex 75)
B2: sdAb C7 (VHH)
VHH: EVQLQASGGGLVQPGGSLNLSCAASGEILSFNSMGWYRQAPGKQCELVAVILSGFSPNYADSVKGRFTISRDGAKNTVFLRMNRLKPEDTADYYCAARFYGAIRDEQSVNYWGQGTRVTVSS
notes: as for B1
B3: sdAb A1 (VHH)
VHH: DVQLQASGGGLVQAGGSLELSCVVVGESIIDYQMAWFRQMVGREREFVAAITGDSHYSDYSASASGRFTISRDNAKKTVSLQMNHLKPEDTALYYCAARKGFGINRLSTAFDYWGHGTQVTVSS
notes: as for B1
B4: sdAb B2 (VHH)
VHH: EVQLQASGGGLVQAGGSLRLSCAASGHINIHYAMGWFRRAPGKEREFVAAVTWSGASTYYADSVKGRFTISRDNGGNTMFLQLDSLKPEDTATYYCAAQGALGRLTSASGYDYWGQGTQVTVSS
notes: as for B1
B5: sdAb G10 (VHH)
VHH: DVQLQASGGGLVQPGGSLKLSCVASGSTFSPDMMRWYRQAPGKQRDLVAWISTSGFTMYADSVKGRFTISRDNAKNTVYLQMNSLKPEDAAVYYCNANRFSGPDYWGQGMQVSVSS
notes: as for B1

The test concerns the target S-layer protein EA1 (Bacillus anthracis Sterne, UniProt P94217). In words: SPR; […] (5 µg/ml in 10 mM sodium acetate pH 4.0); […], dissociation 10 min; […]. The conditions noted are these: both partners purified. For orientation: In SPR one partner is held on a chip, and binding of the other changes the refractive index at the surface.
As a reminder, the Kd is the free concentration of one partner at which half of the binding sites on the other are occupied at equilibrium, for simple one-to-one binding. For orientation: koff means the first-order rate constant of dissociation. Higher therefore signals a short-lived complex. As usually defined, the kon is the rate constant with which the complex forms. For B1, binding was put at a Kd of 6.18 nM, the koff was 0.0015 s⁻¹ and the kon was 242000 M⁻¹ s⁻¹.
For the molecule B2, the Kd amounted to 1.57 nM, the koff stood at 0.000248 s⁻¹ and the on-rate constant (kon) came out at 158000 M⁻¹ s⁻¹.
The corresponding values for B3 are 0.305 nM, 0.000233 s⁻¹ and 766000 M⁻¹ s⁻¹.
Regarding B4, the Kd worked out at 6.17 nM, the koff came to 0.00037 s⁻¹ and the on-rate constant (kon) was determined as 60000 M⁻¹ s⁻¹.
B5: the affinity, expressed as Kd, was 2.04 nM; the koff worked out at 0.000166 s⁻¹; the kon was 81100 M⁻¹ s⁻¹.
